# Laboratory results from US20120191435A1 (SHANGHAI NATIONAL ENGINEERING RESEARCH CENTER OF ANTIBODY …, published 2012).
# Positions count from the first letter of the chain named.
# B1: C2B8 antibody mutant Rmut4 (H102YR) (antibody, V domains shown)
# VH: QVQLQQPGAELVKPGASVKMSCKASGYTFTSYNMHWVKQTPGRGLEWIGAIYPGNGDTSYNQKFKGKATLTADKSSSTAYMQLSSLTSEDSAVYYCARSTYRGGDWYFNVWGAGTTVTVSA
# VL: QIVLSQSPAILSASPGEKVTMTCRASSSVSYIHWFQQKPGSSPKPWIYATSNLASGVPVRFSGSGSGTSYSLTISRVEAEDAATYYCQQWTSNPPTFGGGTKLEIK
# B2: C2B8 antibody mutant Rmut7 (H102YK) (antibody, V domains shown)
# VH: B1 VH with R102K
# VL: B1 VL
# B3: C2B8 antibody mutant Rmut2 (H55NR) (antibody, V domains shown)
# VH: B1 VH with N55R, R102Y
# VL: B1 VL
# B4: C2B8 antibody mutant Rmut3 (H57DE) (antibody, V domains shown)
# VH: B1 VH with D57E, R102Y
# VL: B1 VL
# B5: C2B8 antibody mutant Rmut1 (H55NE) (antibody, V domains shown)
# VH: B1 VH with N55E, R102Y
# VL: B1 VL
# B6: C2B8 antibody mutant Rmut6 (H102YT) (antibody, V domains shown)
# VH: B1 VH with R102T
# VL: B1 VL
# B7: C2B8 antibody mutant Rmut5 (H102YS) (antibody, V domains shown)
# VH: B1 VH with R102S
# VL: B1 VL
# B8: anti-CD20 chimeric antibody Rituximab (C2B8), un-mutated, expressed in CHO-K1 cells in this filing (antibody, human IgG1, kappa, V domains shown)
# VH: B1 VH with R102Y
# VL: QIVLSQSPAILSASPGEKVTMTCRASSSVSYIHWFQQKPGSSPKPWIYATSNLASGVPVRFSGSGSGTSYSLTISRVEAEDAATYYCQQWTSNPPTFGGGTKLEIKR
# notes: Whole chimeric IgG1 kappa; also called WT; un-mutated C2B8
# Molecular target: T1, biotin labeled antigen peptide (a fragment of the CD20 extracellular domain) (human, UniProt P11836 163-187, limits assumed, biotin labeled (position not given))
# T1 construct: domain: a fragment of the CD20 extracellular domain; also called short peptide CD20; CD20 antigen
# T1 peptide (looked up): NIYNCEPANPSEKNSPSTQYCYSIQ
# Assay: Biacore SPR, biotin-CD20 peptide on SA chip; ratio against commercially available rituximab
# Method: (§1) A SA chip was balanced in 50 μl/min of PBS solution for 30 minutes at 25° C. and then activated three times with activation solution of 1M NaCl and 50 mM NaOH, for 1 minute per time. […] Then the chip was balanced in 50 μl/min of PBS solution for 10 minutes. The balanced SA chip was blocked with 0.04% of biotin solution. The antibody was diluted to five concentrations by double dilution. The samples were loaded at the flow rate of 50 μl/min for 75 seconds and dissociated with PBS solution for 10 minutes.
row,Binder,KdRitu/Kdmutant
1,B1,2.23
2,B2,5.04
3,B3,0.78
4,B4,7.73
5,B5,0.69
6,B6,2.34
7,B7,2.35

# Molecular target: T1, biotin labeled antigen peptide (a …)
# Assay: Biacore SPR, biotin-CD20 peptide on SA chip; ratio against un-mutated C2B8 (WT)
# Method: as §1
row,Binder,KdWT/Kdmutant
1,B1,1.75
2,B2,3.96
3,B3,0.61
4,B4,6.08
5,B5,0.54
6,B6,1.84
7,B7,1.85

# Molecular target: T1, biotin labeled antigen peptide (a …)
# Assay: Biacore SPR, biotin-CD20 peptide on SA chip, antibody in flow
# Method: as §1
row,Binder,Kd
1,B8,44.1 nM
